Literature values in paper PMC5031454.

Target: Dscam1 Ig1-4 (Drosophila melanogaster) (UniProt Q0E9H9)
UniProt Q0E9H9, sequence (Q0E9H9 39-421): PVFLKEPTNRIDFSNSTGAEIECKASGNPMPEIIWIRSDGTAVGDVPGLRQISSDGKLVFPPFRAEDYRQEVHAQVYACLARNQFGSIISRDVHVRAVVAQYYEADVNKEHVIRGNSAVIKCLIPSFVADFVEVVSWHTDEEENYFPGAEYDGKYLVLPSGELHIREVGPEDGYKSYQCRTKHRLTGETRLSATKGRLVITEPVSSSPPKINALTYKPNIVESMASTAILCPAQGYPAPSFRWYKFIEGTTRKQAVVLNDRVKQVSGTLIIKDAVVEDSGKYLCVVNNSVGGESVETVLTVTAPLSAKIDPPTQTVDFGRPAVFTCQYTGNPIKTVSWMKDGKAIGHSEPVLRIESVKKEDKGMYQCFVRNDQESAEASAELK

Kd: 0.022 µM
Substance: Slit-N N-terminal fragment (from UniProt P24014)
